In the supplement of paper PMC10724198:
± gives the standard deviation of the averaged measurements.

System: Saccharomyces cerevisiae
Test: protein stability index of tFT-peptide fusion (C-terminal peptide) (PSI (0-1 scale)); higher = more stable (slower turnover)
Details: genetic background: wild type; temperature: 30 C
Protocol: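 Multiplexed protein stability (MPS) profiling in S. cerevisiae. Random 12-aa peptides (tFT-X12 library) are fused to the C-terminus of a sfGFP-mCherry tandem fluorescent timer, after mCherry and a GGGS linker. Cells are FACS-sorted into 8 mCherry/sfGFP bins and deep-sequenced. The protein stability index (PSI) is the read-weighted bin average, scaled from 0 (unstable) to 1 (stable). Only peptides with >10 reads are reported; cells were grown at 30 °C in SC-His with glucose.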
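Note: PSI is a weighted mean of sequencing reads over stability bins, variants kept only with over 10 reads, mCherry proximal and sfGFP distal, peptide attached via GGGS linker.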

Sequence	protein stability index
PASPPPRTISSP	0.704 ± 0.064
PLTPVSPSPNPV	0.648 ± 0.042
HILDHVTSSLSF	0.66 ± 0.011
KFIVQNENSGQC	0.677 ± 0.041
PPRQPFPPILPS	0.677 ± 0.046
GVAWGSGVGMMW	0.718 ± 0.029
VSSAGRPRGFLP	0.671 ± 0.01
GWGGIGDGGPVW	0.679 ± 0.019
SSLLLLFYPPLP	0.712 ± 0.016
GGVDNWKAIRGI	0.737 ± 0.043
PPPPPPPTSRPP	0.644 ± 0.03
PRPSPLSSLSVS	0.7206 ± 0.0064
LSTYVLRTGSFP	0.677 ± 0.1
KVRAGLGIRITQ	0.674 ± 0.021
KDVYEKHLNKQT	0.722 ± 0.1
IGRWGVRWKAVG	0.512 ± 0.053
PPRPRRPLHRSS	0.664 ± 0.011
PLTPPPAVHTYL	0.72 ± 0.037
PSKRKRATPSKR	0.647 ± 0.021
VVFFPVLSYFFR	0.649 ± 0.064
PTPTTSPASRQN	0.682 ± 0.023
WSRGGGGHKEAM	0.639 ± 0.022
HILINTCSCASL	0.546 ± 0.044
GGSGAGRRGGGR	0.72 ± 0.03
KLREKKLLKIAE	0.679 ± 0.042

Sequence	protein stability index
RGHPRRRPERKA	0.707 ± 0.09
GATAGNPEATPS	0.624 ± 0.074
KKNIKKKRNIEK	0.625 ± 0.04
CLLAAMTFYTVR	0.711 ± 0.029
GVVGKDEGRSRA	0.797 ± 0.038
RPKPKRIGREEP	0.63 ± 0.083
EVGWMPFYLVGL	0.67 ± 0.11
MCLSYLSIFLSL	0.548 ± 0.065
IDYETIQKYKVE	0.633 ± 0.011
PVLPLPSLPSPS	0.675 ± 0.0093
WLGSGESVGHAG	0.686 ± 0.067
TLSSLVGACLYV	0.614 ± 0.038
SPPYPPPPVAST	0.707 ± 0.013
FANKLYSVFMDN	0.655 ± 0.13
RARAIGVGSGRG	0.698 ± 0.023
LWVGVVGGVRGV	0.598 ± 0.1
SATHLLADPAPG	0.661 ± 0.088
CFCWLFLVGRAD	0.5734 ± 0.0024
PLPPCSARPPPR	0.7657 ± 0.0042
RLDGVTPVRTCL	0.661 ± 0.054
PHPRPPLAPPLT	0.688 ± 0.038
LAGGGWGGACGE	0.655 ± 0.017
LYKKRSCCLSPL	0.714 ± 0.053
PLHYPTPCHPLP	0.726 ± 0.052
FCSCSCEFVPRS	0.618 ± 0.039

Sequence	protein stability index
NRAIVAYFPGMF	0.666 ± 0.042
LLVCVVDREPPI	0.685 ± 0.019
PGAPPPASPPST	0.714 ± 0.047
PGLSLPLPPPRP	0.703 ± 0.035
ARAEDLLVFLPL	0.691 ± 0.039
KKTNTQTKKKTK	0.709 ± 0.075
CGALRLPSSREV	0.604 ± 0.021
VVGAGDWRWGVW	0.78884 ± 0.00041
WLVRNVVGGGLC	0.701 ± 0.046
SSSCRGGVSVLV	0.679 ± 0.044
PSPPPSISIPPS	0.73 ± 0.17
PPDGRPPPLRLM	0.679 ± 0.014
SELRFALCPAFL	0.666 ± 0.019
RSPRSSSPHPIY	0.7649 ± 0.006
APPPRSPPPTPH	0.696 ± 0.012
HREGTTAFFKTH	0.536 ± 0.013
STHLPPLPATLP	0.784 ± 0.1
VMGGWGCGVLRG	0.731 ± 0.021
SSGASTSIVSTL	0.678 ± 0.015
DWWFGQVYLSKE	0.705 ± 0.011
RHDMTSGCVSHS	0.703 ± 0.039
LACCGGLVTWVL	0.6891 ± 0.0046
AREGGGRAGRRE	0.729 ± 0.021
PNNANHIKHRQY	0.6722 ± 0.0012
TVTPPAPCPPAG	0.709 ± 0.032

Sequence	protein stability index
TRKQSVIRIRMR	0.653 ± 0.0082
NEYFYINVRNRV	0.6743 ± 0.0017
SHAATKGSLFNV	0.631 ± 0.0074
EVWGGFGGGGGS	0.72 ± 0.027
KKGKQQKTEKNG	0.802 ± 0.26
FFSRSPVFSFDF	0.8218 ± 0.0017
RKKRRKVKRSEK	0.547 ± 0.034
VCFCLGNVTMEF	0.732 ± 0.017
HVRVGRGLAVMC	0.528 ± 0.027
PARFPPLPFPPI	0.74 ± 0.035
GGGRGVAVVWVV	0.61 ± 0.023
VKQFLICKNGRS	0.728 ± 0.12
PVLRLPHDETAN	0.705 ± 0.035
PHFLNNRNTIRR	0.714 ± 0.04
PQYLPLLPSPSP	0.632 ± 0.048
GGGGATSGRLSR	0.705 ± 0.023
PRSTFLRRHLRV	0.6184 ± 0.0037
LRVQFFFLAGCT	0.584 ± 0.006
LSARAKRTVTFL	0.593 ± 0.043
FFPELSNLHPPS	0.708 ± 0.017
GFAALLSSLFFL	0.683 ± 0.061
RKQRERGKCGKR	0.726 ± 0.031
GCCWVVISPAGY	0.616 ± 0.044
